Experimental data as given in US20200030424A1 (INNOVATIVE CELLULAR THERAPEUTICS, published 2020).

T1: Human CD19 expressed on cell surfaces (Raji cells; CD19-K562 cells) (human, UniProt P15391 20-556)
T1 construct: whole, on cells; also called antigen CD19; human CD19 antigen
T1 sequence (looked up): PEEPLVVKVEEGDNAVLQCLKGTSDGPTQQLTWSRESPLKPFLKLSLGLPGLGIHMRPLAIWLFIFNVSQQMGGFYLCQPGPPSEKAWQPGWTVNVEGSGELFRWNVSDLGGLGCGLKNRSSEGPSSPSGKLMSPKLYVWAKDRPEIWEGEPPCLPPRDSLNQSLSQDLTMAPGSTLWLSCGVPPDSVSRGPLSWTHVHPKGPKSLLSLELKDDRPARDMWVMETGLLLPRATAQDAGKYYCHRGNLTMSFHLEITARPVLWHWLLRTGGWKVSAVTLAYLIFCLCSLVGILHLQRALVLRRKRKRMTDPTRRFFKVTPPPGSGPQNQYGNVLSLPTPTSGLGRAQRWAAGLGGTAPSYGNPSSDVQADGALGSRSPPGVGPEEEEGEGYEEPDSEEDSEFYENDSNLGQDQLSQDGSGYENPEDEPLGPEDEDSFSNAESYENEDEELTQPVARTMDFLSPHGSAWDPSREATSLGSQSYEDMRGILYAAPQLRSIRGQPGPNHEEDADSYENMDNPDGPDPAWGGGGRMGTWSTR


What was measured:
[1] = target: T1, Human CD19 expressed on cell surfaces …; assay: flow cytometry on CD19-K562 cells
[2] = target: T1, Human CD19 expressed on cell surfaces …; assay: flow cytometry on Raji cells
Experimental: Raji cell is a strain derived from human B lymphoma cell line. Raji cells were purchased from Chinese Academy of Medical Sciences, Institute of Basic Medical Cell Resource Center. The surface of Raji cells expresses antigen CD19, and the anti-CD19 antibody can be used to analyze the binding capacity of recombinant humanized monoclonal antibodies. By flow cytometry (IFA), binding abilities of the four recombinant humanized antibodies were analyzed.

Binder | MFI(Geo) [1] | MFI (GeoMean) [2]
h2FMC63VH + L5F3 (antibody, V domains shown, Humanized monoclonal antibody transiently expressed in HEK293 cells, with heavy chain from pTSEG1n-h2FMC63VH; also called L5F3 (humanized antibody)) VH: EVQLVESGGGLVQPGGSLRLSCAASGVSLPDYGVSWVRQAPGKGLEWVSVIWGSETTYYNSALKSRFTISRDNAKNSLYLQMNSLRAEDTAVYYCAKHYYYGGSYAMDYWGQGTLVTVSS VL: SYELTQPPSVSVAPGQTARITCGGNNLGDNSARWYQQKPGQAPVLVIYGNSNRPSGIPERFSGSNSGNTATLTISGTQAEDEADYYCQVTDTRSTSVVFGGGTKLTVL | 147 | 
h2FMC63VH + L2D12 (antibody, V domains shown, Humanized monoclonal antibody transiently expressed in HEK293 cells, with heavy chain from pTSEG1n-h2FMC63VH; also called L2D12 (humanized antibody)) VH: EVQLVESGGGLVQPGGSLRLSCAASGVSLPDYGVSWVRQAPGKGLEWVSVIWGSETTYYNSALKSRFTISRDNAKNSLYLQMNSLRAEDTAVYYCAKHYYYGGSYAMDYWGQGTLVTVSS VL: SYELTQPPSVSVAPGQTARITCGGNDLRAQYVHWYQQKPGQAPVLVMYDDSKRPSGIPERFSGSNSGNTATLTISGTQAEDEADYYCQSWDRTSEPKVFGGGTKLTVL | 55.5 | 
h2FMC63 (antibody, V domains shown, Humanized heavy chain h2FMC63VH in pTSEG1n-S (human heavy constant); also called third version of a humanized antibody) VH: EVQLVESGGGLVQPGGSLRLSCAASGVSLPDYGVSWVRQAPGKGLEWVSVIWGSETTYYNSALKSRFTISRDNAKNSLYLQMNSLRAEDTAVYYCAKHYYYGGSYAMDYWGQGTLVTVSS VL: DIQMTQTTSSLSASLGDRVTISCRASQDISKYLNWYQQKPDGTVKLLIYHTSRLHSGVPSRFSGSGSGTDYSLTISNLEQEDIATYFCQQGNTLPYTFGGGTKLEIK |  | 330
h2FMC63VH + L2D8 (antibody, V domains shown, Humanized monoclonal antibody transiently expressed in HEK293 cells, with heavy chain from pTSEG1n-h2FMC63VH; also called L2D8 (humanized antibody)) VH: EVQLVESGGGLVQPGGSLRLSCAASGVSLPDYGVSWVRQAPGKGLEWVSVIWGSETTYYNSALKSRFTISRDNAKNSLYLQMNSLRAEDTAVYYCAKHYYYGGSYAMDYWGQGTLVTVSS VL: DIQMTQSPSSLSASVGDRVTITCRASQSVGSFLAWYQQKPGKAPKLLIYGASSRESGVPSRFSGSGSGTDFTLTISSLQPEDFATYYCQQTYHNPETFGQGTKVEIK | 125 | 
hFMC63 (antibody, V domains shown, Humanized heavy chain hFMC63VH in pTSEG1n-S (human heavy constant)) VH: QVQLQESGPGLVKPSETLSLTCTVSGVSLPDYGWSWIRQPPGKGLEWIGRIWGSETTYYNPSLKSRVTISVDTSKNQFSLKLSSVTAADTAVYYCAKHYYYGGSYAMDYWGQGTLVTVSS VL: DIQMTQTTSSLSASLGDRVTISCRASQDISKYLNWYQQKPDGTVKLLIYHTSRLHSGVPSRFSGSGSGTDYSLTISNLEQEDIATYFCQQGNTLPYTFGGGTKLEIK |  | 67
h1FMC63 (antibody, V domains shown, Humanized heavy chain h1FMC63VH in pTSEG1n-S (human heavy constant)) VH: QVQLQESGPGLVKPSETLSLTCTVSGVSLPDYGVSWIRQPPGKGLEWIGVIWGSETTYYNSALKSRVTISVDTSKNQFSLKLSSVTAADTAVYYCAKHYYYGGSYAMDYWGQGTLVTVSS VL: DIQMTQTTSSLSASLGDRVTISCRASQDISKYLNWYQQKPDGTVKLLIYHTSRLHSGVPSRFSGSGSGTDYSLTISNLEQEDIATYFCQQGNTLPYTFGGGTKLEIK |  | 186
